In patent US20050171016A1:

Biological target: CD36 receptor on human dermal microvascular endothelial cells (HDMEC) (human) (UniProt P16671)
Test: cell-based or functional assay

UniProt P16671, sequence (P16671 2-472): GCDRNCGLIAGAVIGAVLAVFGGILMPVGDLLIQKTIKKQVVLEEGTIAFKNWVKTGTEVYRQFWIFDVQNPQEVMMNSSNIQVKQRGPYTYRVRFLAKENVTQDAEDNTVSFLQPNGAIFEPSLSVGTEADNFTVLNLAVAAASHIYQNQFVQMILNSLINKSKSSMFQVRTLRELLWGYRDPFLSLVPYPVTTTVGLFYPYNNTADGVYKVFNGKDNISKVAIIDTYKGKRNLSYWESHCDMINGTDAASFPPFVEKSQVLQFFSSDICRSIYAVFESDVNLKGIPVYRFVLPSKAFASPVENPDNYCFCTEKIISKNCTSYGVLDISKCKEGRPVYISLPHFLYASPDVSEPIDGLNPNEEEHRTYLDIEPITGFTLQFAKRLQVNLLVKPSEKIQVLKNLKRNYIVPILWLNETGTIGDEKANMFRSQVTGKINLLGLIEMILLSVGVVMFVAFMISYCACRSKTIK

**Q.** Which inhibition of HDMEC migration (Transwell, 10 ug/ml TSP-1) does the source give for “human thrombospondin-1 (TSP-1) (from UniProt P07996 19-1170)” here?
**A.** 54%

**Q.** What about the inhibition of HDMEC migration in the presence of 10 ug/ml anti-CD36 antibody (clone FA6-152) of the same substance?
**A.** 20.8%

**Q.** What does the source list for “mouse thrombospondin-2 (TSP-2) (from UniProt Q03350 19-1172)”?
**A.** inhibition of HDMEC migration (Transwell, TSP-2 conditioned medium): 54.2%; inhibition of HDMEC migration in the presence of 10 ug/ml anti-CD36 antibody (clone FA6-152): 36.1%
